Reference: US20090143241A1 (PENN STATE RESEARCH FOUNDATION, published 2009)
Where no end group is shown, it is not given here.

Tests used:
[1] = target: T1, ClpXP protease (E. coli ClpX6 with ClpP14) (E. coli, UniProt P0A6H1 1-424; P0A6G7 15-207); assay: continuous fluorimetric assay of GFP-tag proteolysis by ClpXP, with SspB
T1 construct: Purified recombinant proteins mixed in the assay; also called SspB-ClpXP (when SspB is added); not shown: N-terminal His6 tag from pET28a; C-terminal His6 tag from pQE70
T1 sequence (P0A6H1 whole entry, chain 1 of 2): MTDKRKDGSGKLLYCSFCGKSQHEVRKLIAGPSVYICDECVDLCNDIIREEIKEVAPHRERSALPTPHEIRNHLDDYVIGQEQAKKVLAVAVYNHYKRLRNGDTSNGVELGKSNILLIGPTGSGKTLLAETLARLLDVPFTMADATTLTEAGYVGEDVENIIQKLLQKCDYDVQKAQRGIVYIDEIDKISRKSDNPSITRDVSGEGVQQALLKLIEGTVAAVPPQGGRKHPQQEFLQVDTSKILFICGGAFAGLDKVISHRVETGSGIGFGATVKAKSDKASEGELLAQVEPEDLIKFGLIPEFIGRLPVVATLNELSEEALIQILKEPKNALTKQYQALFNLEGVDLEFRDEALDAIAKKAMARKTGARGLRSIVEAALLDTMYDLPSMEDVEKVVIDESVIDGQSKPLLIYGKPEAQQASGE
T1 sequence (P0A6G7 15-207, chain 2 of 2): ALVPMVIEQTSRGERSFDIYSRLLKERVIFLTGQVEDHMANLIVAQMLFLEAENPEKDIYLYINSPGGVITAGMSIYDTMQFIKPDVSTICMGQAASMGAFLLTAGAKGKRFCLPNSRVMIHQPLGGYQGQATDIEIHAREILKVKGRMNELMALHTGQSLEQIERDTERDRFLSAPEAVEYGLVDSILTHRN

[2] = target: T1, ClpXP protease (E. coli ClpX6 with …); assay: continuous fluorimetric assay of GFP-tag proteolysis by ClpXP, no SspB
[3] = target: T1, ClpXP protease (E. coli ClpX6 with …); assay: kinetic assays with purified peptides and E. coli proteins (GFP-tag proteolysis by ClpXP with SspB); uncompetitive model
[4] = target: T1, ClpXP protease (E. coli ClpX6 with …); assay: cell-based or functional assay
[5] = target: T1, ClpXP protease (E. coli ClpX6 with …); assay: GFP-tag proteolysis by ClpXP in the presence of SspB
[6] = target: T1, ClpXP protease (E. coli ClpX6 with …); assay: kinetic assays with purified peptides and E. coli proteins (GFP-tag proteolysis by ClpXP with SspB)
[7] = target: T1, ClpXP protease (E. coli ClpX6 with …); assay: GFP-tag proteolysis by ClpXP without SspB against with SspB

Binder | Ki [1] [µM] | Ki [2] [µM] | other results
SGSKGVLPL (head-to-tail cyclized (cyclic peptide), Chemically synthesized linear, circularized and HPLC purified; also called IXP3) [ICP1, cyclic SGSKGVLPL peptide] | 25 | 28 | –
SGWYGRRH (head-to-tail cyclized (cyclic peptide), also called cyclic IXP1) [IXP1, cyclic SGWYGRRH peptide] | – | – | Ki [3]: 136 µM; half-life of λ O with ClpXP and 100 µM IXP1 [4]: 1.22 h
SGWPYKWM (head-to-tail cyclized (cyclic peptide), Arbitrary cyclic peptide from the SGWX5 library, negative control; also called arbitrary cyclic peptide) [Con62, cyclic SGWPYKWM peptide] | – | > 1000 | –
CRGGRPALRVVK (The text calls XB the 11 C-terminal residues of E. coli SspB; also called linXB) [linear XB peptide, CRGGRPALRVVK] | 64 | > 1000 | Ki [5]: 6.4 µM; Ki [6]: 56 µM
CRGGRPALRVVK (also: cyclized in vitro, ring type not given here) [cycXB, cyclic XB peptide [CRGGRPALRVVK] (Table 4)] | 8 | 6 | Ki [5]: 8.1 µM; fold lower KI than the linear XB peptide [5]: 7 fold
RGGRPALRVVK (also: cyclized, ring type not given here, possibly the same preparation as m6; also called cyclic XB peptide) [cyclic XB, RGGRPALRVVK (Table 6)] | – | – | fold lower KI than the linear XB peptide [5]: 7 fold; Ki [6]: 8 µM
SGWRVQGPL (head-to-tail cyclized (cyclic peptide), also called IXP4) [ICP2, cyclic SGWRVQGPL peptide] | 21 | > 1000 | fold higher KI without SspB [7]: ≥ 10 fold
